Measured values taken from publication doi:10.64898/2025.12.22.695782.
Where two headings read alike, the source gives them in different places.

Key:
Assay in all cases: NMR HSQC titration
TDP-43 CTD WT [1] = target: T1, TDP-43 CTD WT (Homo sapiens, UniProt Q13148 267-414)
TDP-43 CTD WT [2] = target: T1, TDP-43 CTD WT; remark: listed apart in the source
TDP-43 CTD WT [3] = target: T1, TDP-43 CTD WT; remark: listed apart in the source
TDP-43 CTD WT [4] = target: T1, TDP-43 CTD WT; remark: listed apart in the source
TDP-43 CTD WT [5] = target: T1, TDP-43 CTD WT; remark: listed apart in the source
TDP-43 CTD WT [6] = target: T1, TDP-43 CTD WT; remark: listed apart in the source
TDP-43 CTD WT [7] = target: T1, TDP-43 CTD WT; remark: listed apart in the source

T1 sequence (Q13148 267-414): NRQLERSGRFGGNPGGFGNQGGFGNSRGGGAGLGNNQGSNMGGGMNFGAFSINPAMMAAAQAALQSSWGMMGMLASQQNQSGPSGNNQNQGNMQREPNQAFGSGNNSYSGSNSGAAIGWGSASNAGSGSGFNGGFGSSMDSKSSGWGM

## TTTTTTTTTTTT (ssDNA) [dT12]
TDP-43 CTD WT [1]
  binding result: binds

## UUUUUUUUUUUU (ssDNA, deoxyuridine (DNA backbone) throughout) [dU12]
TDP-43 CTD WT [2]
  binding result: binds

## AAAAAAAAAAAA (ssDNA) [dA12]
TDP-43 CTD WT [3]
  binding result: binds

## GGGGGGGGGGGG (structured_DNA) [dG12]
TDP-43 CTD WT [4]
  binding result: binds

## CCCCCCCCCCCC (structured_DNA) [dC12]
TDP-43 CTD WT [4]
  binding result: binds

## GCTTATGGGGAGGGTGGGGAGGGTGGGGAAGGTG (structured_DNA) [c-Myc G4]
TDP-43 CTD WT [5]
  binding result: binds

## CACCTTCCCCACCCTCCCCACCCTCCCCATAAGC (structured_DNA) [c-Myc I-motif]
TDP-43 CTD WT [6]
  binding result: binds

## TGTGTGTGTGTGTGTGTGTGTGTGTGTGTGTGTG (ssDNA) [(TG)17]
TDP-43 CTD WT [7]
  binding result: binds
